For test [1], the target named is NaPI-insensitive chymotrypsin from H. punctigera (HpCh5), native enzyme from the larval gut (Helicoverpa punctigera). The experiment in a line: cell-based or functional assay.
Test [2] deals with chymotrypsins in unfractionated gut extracts from H. punctigera larvae. The experiment in a line: cell-based or functional assay.

Sequence of NaPI-insensitive chymotrypsin from H. punctigera (HpCh5), native enzyme from the larval gut (Helicoverpa punctigera) (chain, as listed by the source limits assumed): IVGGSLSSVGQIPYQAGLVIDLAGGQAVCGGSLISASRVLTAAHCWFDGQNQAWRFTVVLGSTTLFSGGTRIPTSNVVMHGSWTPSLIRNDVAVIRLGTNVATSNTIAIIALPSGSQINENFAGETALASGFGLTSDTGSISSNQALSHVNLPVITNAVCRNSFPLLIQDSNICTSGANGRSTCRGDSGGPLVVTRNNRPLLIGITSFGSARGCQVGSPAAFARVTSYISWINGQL

B1: StPotIB, bacterially expressed with N-terminal 6xHis-tag (protein, not shown: small tags and cut ends)
chain: KEFECNGKQFWPELIGVPTKLAKEIIEKENSLINNVQILLNGSPVTMDYRCNRVRLFDNILGSVVQIPRVA
Consider B1, for which, in test [1], the inhibition of SA2PFpNA or SA2PLpNA hydrolysis at 300 nM inhibitor is over 75% and the inhibition of SA2PMpNA hydrolysis amounted to 40%.

B2: StPotIA, bacterially expressed with N-terminal 6xHis-tag (protein, not shown: small tags and cut ends)
chain: KESESESWCKGKQFWPELIGVPTKLAKEIIEKENPSINDVPIILNGTPVPADFRCNRVRLFDNILGDVVQIPRVA
In test [1], B2 gave an inhibition of SA2PFpNA or SA2PLpNA hydrolysis at 300 nM inhibitor of over 75% and an inhibition of SA2PMpNA hydrolysis of 40%.

B3: recombinant C1 inhibitor with N-terminal hexahistidine tag, expressed in E. coli (protein, not shown: small tags and cut ends)
chain: DRICTNCCAGTKGCKYFSDDGTFVCEGESDPRNPKACTLNCDPRIAYGVCPRSEEKKN
In test [2], B3 came in with an inhibition of gut chymotrypsin activity, unfractionated gut extract (FIG. 3) of 70%.

These data come from patent US20090188010A1.
